Publication PMC9352680, “A comprehensive thermodynamic model for RNA binding by the Saccharomyces cerevisiae Pumilio protein PUF4”

B1: Id_ii_S2_P4E.2_K4.1_C4.2_[C-2A]_[T-1C]_H4.1_A4.1_F4.1_T4.2_[G10C] (ssRNA)
RNA: UUUGAUUAAUAUGAUAUCGUUCUUUCUACUGUAUAUUACUUUCUUUCUCGAUAUCAUAUUAAUCUUU
B2: Id_ii_S2_P4E.2_K4.1_C4.2_[C-2A]_H4.1_A4.1_F4.1_T4.2_[G10A] (ssRNA)
RNA: UUUGAUUAAUAUGAUAUCGUUCUUUCUAUUGUAUAUUAAUUUCUUUCUCGAUAUCAUAUUAAUCUUU
B3: Id_ii_S2_P4E.2_K4.1_C4.2_[T-1C]_H4.1_A4.1_F4.1_T4.2_[G10T]_[T11A] (ssRNA)
RNA: UUUGAUUAAUAUGAUAUCGUUCUUUCUCCUGUAUAUUAUAUUCUUUCUCGAUAUCAUAUUAAUCUUU
B4: Id_ii_S2_P4E.2_K4.1_C4.2_[T-1A]_H4.1_A4.1_F4.1_T4.2_[G10C] (ssRNA)
RNA: UUUGAUUAAUAUGAUAUCGUUCUUUCUCAUGUAUAUUACUUUCUUUCUCGAUAUCAUAUUAAUCUUU
B5: Id_ii_S2_P4E.2_K4.1_C4.2_[T-1A]_H4.1_A4.1_F4.1_T4.2_[G10A]_[T11A] (ssRNA)
RNA: UUUGAUUAAUAUGAUAUCGUUCUUUCUCAUGUAUAUUAAAUUCUUUCUCGAUAUCAUAUUAAUCUUU
B6: Id_ii_S2_P4E.2_K4.1_C4.2_[C-2A]_[T-1C]_H4.1_A4.1_F4.1_T4.2_[G10A]_[T11C] (ssRNA)
RNA: UUUGAUUAAUAUGAUAUCGUUCUUUCUACUGUAUAUUAACUUCUUUCUCGAUAUCAUAUUAAUCUUU
B7: Id_ii_S2_P4E.2_K4.1_C4.2_[C-2A]_H4.1_A4.1_F4.1_T4.2_[G10T]_[T11G] (ssRNA)
RNA: UUUGAUUAAUAUGAUAUCGUUCUUUCUAUUGUAUAUUAUGUUCUUUCUCGAUAUCAUAUUAAUCUUU
B8: Id_ii_S2_P4E.2_K4.1_C4.2_[C-2A]_[T-1A]_H4.1_A4.1_F4.1_T4.2_[G10C]_[T11C] (ssRNA)
RNA: UUUGAUUAAUAUGAUAUCGUUCUUUCUAAUGUAUAUUACCUUCUUUCUCGAUAUCAUAUUAAUCUUU
B9: Id_ii_S2_P4E.2_K4.1_C4.2_[C-2A]_[T-1C]_H4.1_A4.1_F4.1_T4.2_[G10T]_[T11A] (ssRNA)
RNA: UUUGAUUAAUAUGAUAUCGUUCUUUCUACUGUAUAUUAUAUUCUUUCUCGAUAUCAUAUUAAUCUUU
B10: Id_ii_S2_P4E.2_K4.1_C4.2_[T-1C]_H4.1_A4.1_F4.1_T4.2_[G10C] (ssRNA)
RNA: UUUGAUUAAUAUGAUAUCGUUCUUUCUCCUGUAUAUUACUUUCUUUCUCGAUAUCAUAUUAAUCUUU
B11: Id_ii_S2_P4E.2_K4.1_C4.2_[C-2A]_[T-1A]_H4.1_A4.1_F4.1_T4.2_[G10A] (ssRNA)
RNA: UUUGAUUAAUAUGAUAUCGUUCUUUCUAAUGUAUAUUAAUUUCUUUCUCGAUAUCAUAUUAAUCUUU
B12: Id_ii_S2_P4E.2_K4.1_C4.2_[T-1C]_H4.1_A4.1_F4.1_T4.2_[G10A]_[T11G] (ssRNA)
RNA: UUUGAUUAAUAUGAUAUCGUUCUUUCUCCUGUAUAUUAAGUUCUUUCUCGAUAUCAUAUUAAUCUUU
B13: Id_ii_S2_P4E.2_K4.1_C4.2_[T-1C]_H4.1_A4.1_F4.1_T4.2_[G10T] (ssRNA)
RNA: UUUGAUUAAUAUGAUAUCGUUCUUUCUCCUGUAUAUUAUUUUCUUUCUCGAUAUCAUAUUAAUCUUU
B14: Id_ii_S2_P4E.2_K4.1_C4.2_[C-2A]_[T-1C]_H4.1_A4.1_F4.1_T4.2_[G10T]_[T11C] (ssRNA)
RNA: UUUGAUUAAUAUGAUAUCGUUCUUUCUACUGUAUAUUAUCUUCUUUCUCGAUAUCAUAUUAAUCUUU
B15: Id_ii_S2_P4E.2_K4.1_C4.2_[C-2A]_[T-1C]_H4.1_A4.1_F4.1_T4.2_[G10A]_[T11A] (ssRNA)
RNA: UUUGAUUAAUAUGAUAUCGUUCUUUCUACUGUAUAUUAAAUUCUUUCUCGAUAUCAUAUUAAUCUUU
B16: Id_ii_S2_P4E.2_K4.1_C4.2_[C-2A]_H4.1_A4.1_F4.1_T4.2_[G10T]_[T11C] (ssRNA)
RNA: UUUGAUUAAUAUGAUAUCGUUCUUUCUAUUGUAUAUUAUCUUCUUUCUCGAUAUCAUAUUAAUCUUU
B17: Id_ii_S2_P4E.2_K4.1_C4.2_[T-1G]_H4.1_A4.1_F4.1_T4.2_[G10A] (ssRNA)
RNA: UUUGAUUAAUAUGAUAUCGUUCUUUCUCGUGUAUAUUAAUUUCUUUCUCGAUAUCAUAUUAAUCUUU
B18: Id_ii_S2_P4E.2_K4.1_C4.2_[C-2A]_H4.1_A4.1_F4.1_T4.2_[G10A]_[T11A] (ssRNA)
RNA: UUUGAUUAAUAUGAUAUCGUUCUUUCUAUUGUAUAUUAAAUUCUUUCUCGAUAUCAUAUUAAUCUUU
B19: Id_ii_S2_P4E.2_K4.1_C4.2_[C-2A]_[T-1C]_H4.1_A4.1_F4.1_T4.2_[G10A] (ssRNA)
RNA: UUUGAUUAAUAUGAUAUCGUUCUUUCUACUGUAUAUUAAUUUCUUUCUCGAUAUCAUAUUAAUCUUU
B20: Id_ii_S2_P4E.2_K4.1_C4.2_[C-2A]_[T-1C]_H4.1_A4.1_F4.1_T4.2_[G10T]_[T11G] (ssRNA)
RNA: UUUGAUUAAUAUGAUAUCGUUCUUUCUACUGUAUAUUAUGUUCUUUCUCGAUAUCAUAUUAAUCUUU
B21: Id_ii_S2_P4E.2_K4.1_C4.2_[C-2A]_[T-1A]_H4.1_A4.1_F4.1_T4.2_[G10A]_[T11C] (ssRNA)
RNA: UUUGAUUAAUAUGAUAUCGUUCUUUCUAAUGUAUAUUAACUUCUUUCUCGAUAUCAUAUUAAUCUUU
B22: Id_ii_S2_P4E.2_K4.1_C4.2_[T-1G]_H4.1_A4.1_F4.1_T4.2_[G10A]_[T11A] (ssRNA)
RNA: UUUGAUUAAUAUGAUAUCGUUCUUUCUCGUGUAUAUUAAAUUCUUUCUCGAUAUCAUAUUAAUCUUU
B23: Id_ii_S2_P4E.2_K4.1_C4.2_[C-2A]_[T-1A]_H4.1_A4.1_F4.1_T4.2_[G10A]_[T11G] (ssRNA)
RNA: UUUGAUUAAUAUGAUAUCGUUCUUUCUAAUGUAUAUUAAGUUCUUUCUCGAUAUCAUAUUAAUCUUU
B24: Id_ii_S2_P4E.2_K4.1_C4.2_[T-1C]_H4.1_A4.1_F4.1_T4.2_[G10A]_[T11A] (ssRNA)
RNA: UUUGAUUAAUAUGAUAUCGUUCUUUCUCCUGUAUAUUAAAUUCUUUCUCGAUAUCAUAUUAAUCUUU
B25: Id_ii_S2_P4E.2_K4.1_C4.2_[T-1A]_H4.1_A4.1_F4.1_T4.2 (ssRNA)
RNA: UUUGAUUAAUAUGAUAUCGUUCUUUCUCAUGUAUAUUAGUUUCUUUCUCGAUAUCAUAUUAAUCUUU
B26: Id_ii_S2_P4E.2_K4.1_C4.2_[C-2A]_H4.1_A4.1_F4.1_T4.2_[G10C] (ssRNA)
RNA: UUUGAUUAAUAUGAUAUCGUUCUUUCUAUUGUAUAUUACUUUCUUUCUCGAUAUCAUAUUAAUCUUU
B27: Id_ii_S2_P4E.2_K4.1_C4.2_[T-1G]_H4.1_A4.1_F4.1_T4.2_[G10A]_[T11G] (ssRNA)
RNA: UUUGAUUAAUAUGAUAUCGUUCUUUCUCGUGUAUAUUAAGUUCUUUCUCGAUAUCAUAUUAAUCUUU
B28: Id_ii_S2_P4E.2_K4.1_C4.2_[T-1C]_H4.1_A4.1_F4.1_T4.2 (ssRNA)
RNA: UUUGAUUAAUAUGAUAUCGUUCUUUCUCCUGUAUAUUAGUUUCUUUCUCGAUAUCAUAUUAAUCUUU
B29: Id_ii_S2_P4E.2_K4.1_C4.2_[T-1A]_H4.1_A4.1_F4.1_T4.2_[G10C]_[T11C] (ssRNA)
RNA: UUUGAUUAAUAUGAUAUCGUUCUUUCUCAUGUAUAUUACCUUCUUUCUCGAUAUCAUAUUAAUCUUU
B30: Id_ii_S2_P4E.2_K4.1_C4.2_[C-2A]_[T-1A]_H4.1_A4.1_F4.1_T4.2_[G10A]_[T11A] (ssRNA)
RNA: UUUGAUUAAUAUGAUAUCGUUCUUUCUAAUGUAUAUUAAAUUCUUUCUCGAUAUCAUAUUAAUCUUU
B31: Id_ii_S2_P4E.2_K4.1_C4.2_H4.1_A4.1_F4.1_T4.2_[G10C] (ssRNA)
RNA: UUUGAUUAAUAUGAUAUCGUUCUUUCUCUUGUAUAUUACUUUCUUUCUCGAUAUCAUAUUAAUCUUU
B32: Id_ii_S2_P4E.2_K4.1_C4.2_[T-1G]_H4.1_A4.1_F4.1_T4.2 (ssRNA)
RNA: UUUGAUUAAUAUGAUAUCGUUCUUUCUCGUGUAUAUUAGUUUCUUUCUCGAUAUCAUAUUAAUCUUU
B33: Id_ii_S2_P4E.2_K4.1_C4.2_[C-2A]_[T-1A]_H4.1_A4.1_F4.1_T4.2_[G10T]_[T11C] (ssRNA)
RNA: UUUGAUUAAUAUGAUAUCGUUCUUUCUAAUGUAUAUUAUCUUCUUUCUCGAUAUCAUAUUAAUCUUU
B34: Id_ii_S2_P4E.2_K4.1_C4.2_[T-1A]_H4.1_A4.1_F4.1_T4.2_[G10A] (ssRNA)
RNA: UUUGAUUAAUAUGAUAUCGUUCUUUCUCAUGUAUAUUAAUUUCUUUCUCGAUAUCAUAUUAAUCUUU
B35: Id_ii_S2_P4E.2_K4.1_C4.2_[C-2A]_[T-1C]_H4.1_A4.1_F4.1_T4.2_[G10T] (ssRNA)
RNA: UUUGAUUAAUAUGAUAUCGUUCUUUCUACUGUAUAUUAUUUUCUUUCUCGAUAUCAUAUUAAUCUUU
B36: Id_ii_S2_P4E.2_K4.1_C4.2_H4.1_A4.1_F4.1_T4.2_[G10C]_[T11C] (ssRNA)
RNA: UUUGAUUAAUAUGAUAUCGUUCUUUCUCUUGUAUAUUACCUUCUUUCUCGAUAUCAUAUUAAUCUUU
B37: Id_ii_S2_P4E.2_K4.1_C4.2_[T-1G]_H4.1_A4.1_F4.1_T4.2_[G10T]_[T11C] (ssRNA)
RNA: UUUGAUUAAUAUGAUAUCGUUCUUUCUCGUGUAUAUUAUCUUCUUUCUCGAUAUCAUAUUAAUCUUU
B38: Id_ii_S2_P4E.2_K4.1_C4.2_[T-1G]_H4.1_A4.1_F4.1_T4.2_[G10T] (ssRNA)
RNA: UUUGAUUAAUAUGAUAUCGUUCUUUCUCGUGUAUAUUAUUUUCUUUCUCGAUAUCAUAUUAAUCUUU
B39: Id_ii_S2_P4E.2_K4.1_C4.2_[T-1A]_H4.1_A4.1_F4.1_T4.2_[G10A]_[T11G] (ssRNA)
RNA: UUUGAUUAAUAUGAUAUCGUUCUUUCUCAUGUAUAUUAAGUUCUUUCUCGAUAUCAUAUUAAUCUUU

Molecular target: T1, PUF4 RNA-binding domain (Saccharomyces cerevisiae, UniProt P25339 537-888)
T1 sequence: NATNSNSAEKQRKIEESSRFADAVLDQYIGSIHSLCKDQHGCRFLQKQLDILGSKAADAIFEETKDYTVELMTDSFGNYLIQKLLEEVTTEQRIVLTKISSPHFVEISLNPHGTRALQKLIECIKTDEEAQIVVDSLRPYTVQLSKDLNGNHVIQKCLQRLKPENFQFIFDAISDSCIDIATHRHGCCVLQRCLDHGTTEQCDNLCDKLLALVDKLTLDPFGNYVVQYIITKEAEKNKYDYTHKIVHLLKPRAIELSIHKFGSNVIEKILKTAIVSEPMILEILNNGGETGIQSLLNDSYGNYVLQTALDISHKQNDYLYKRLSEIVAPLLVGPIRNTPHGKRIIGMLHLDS
Assay: Mg; RNA-MaP; 20 mM Na-HEPES pH 7.4, 30 mM KOAc, 0.75 mM MgCl2, 0.1% Tween-20, 5% glycerol, 0.1 mg/mL BSA, 2 mM DTT; 25 C; 0.0125-409.6 nM protein
Details: tags: N-His6-TEV cleaved; C-SNAP kept, Cy3B-labelled; label: tethered on chip by stalled RNA polymerase

Row | Binder | Kd [nM]
1 | UCUCUUUCUAUUAUUGUCUCUU (ssRNA) [Ib_S1_P5E.1_K5.1_C5.1_H5.1_[G2C]_A5.1_F5.1_[A10G]_T5.1] | > 2300
2 | UCUCUUCGUAUUAUUCUCUCUU (ssRNA) [Ib_S1_P5E.1_K5.1_C5.1_H5.1_[T1C]_A5.1_F5.1_[A10C]_T5.1] | > 2300
3 | UCUCUUAGUAUUAUUUUCUCUU (ssRNA) [Ib_S1_P5E.1_K5.1_C5.1_H5.1_[T1A]_A5.1_F5.1_[A10T]_T5.1] | > 2300
4 | B1 | 1.25
5 | B2 | 0.782
6 | B3 | 0.342
7 | B4 | 0.716
8 | B5 | 0.937
9 | B6 | 0.678
10 | B7 | 0.705
11 | B8 | 2.15
12 | B9 | 0.628
13 | B10 | 0.482
14 | B11 | 1.93
15 | B12 | 1.63
16 | B13 | 0.15
17 | B14 | 0.33
18 | B15 | 0.702
19 | B16 | 0.401
20 | B17 | 0.316
21 | B18 | 0.939

Row | Binder | Kd [nM]
22 | B19 | 0.442
23 | B20 | 1.95
24 | B21 | 1.96
25 | B22 | 0.489
26 | B23 | 8.86
27 | B24 | 0.324
28 | B25 | 0.425
29 | B26 | 1.11
30 | B27 | 1.7
31 | B28 | 0.166
32 | B29 | 0.746
33 | B30 | 3.89
34 | B31 | 0.572
35 | B32 | 0.296
36 | B33 | 1.1
37 | B34 | 0.506
38 | B35 | 0.296
39 | B36 | 0.362
40 | B37 | 0.286
41 | B38 | 0.195
42 | B39 | 2.6
